# Strand notation (5' to 3'): a small letter for the sugar, then the base; units joined by * are phosphorothioate-linked, units joined directly phosphodiester-linked; [ ] holds rarer units or linkages, { } end groups; capitals alone tell only the bases. {ppp} = triphosphate; r = 2'-OH (RNA); f = 2'-fluoro
# T1: Human TLR7 (Homo sapiens, UniProt Q9NYK1)
# T1 construct: expressed in transfected cells; host or cells: HEK293 (HEK-TLR7), gift of Dr. Todd Brennan, Duke University
# T1 sequence (Q9NYK1 27-1049): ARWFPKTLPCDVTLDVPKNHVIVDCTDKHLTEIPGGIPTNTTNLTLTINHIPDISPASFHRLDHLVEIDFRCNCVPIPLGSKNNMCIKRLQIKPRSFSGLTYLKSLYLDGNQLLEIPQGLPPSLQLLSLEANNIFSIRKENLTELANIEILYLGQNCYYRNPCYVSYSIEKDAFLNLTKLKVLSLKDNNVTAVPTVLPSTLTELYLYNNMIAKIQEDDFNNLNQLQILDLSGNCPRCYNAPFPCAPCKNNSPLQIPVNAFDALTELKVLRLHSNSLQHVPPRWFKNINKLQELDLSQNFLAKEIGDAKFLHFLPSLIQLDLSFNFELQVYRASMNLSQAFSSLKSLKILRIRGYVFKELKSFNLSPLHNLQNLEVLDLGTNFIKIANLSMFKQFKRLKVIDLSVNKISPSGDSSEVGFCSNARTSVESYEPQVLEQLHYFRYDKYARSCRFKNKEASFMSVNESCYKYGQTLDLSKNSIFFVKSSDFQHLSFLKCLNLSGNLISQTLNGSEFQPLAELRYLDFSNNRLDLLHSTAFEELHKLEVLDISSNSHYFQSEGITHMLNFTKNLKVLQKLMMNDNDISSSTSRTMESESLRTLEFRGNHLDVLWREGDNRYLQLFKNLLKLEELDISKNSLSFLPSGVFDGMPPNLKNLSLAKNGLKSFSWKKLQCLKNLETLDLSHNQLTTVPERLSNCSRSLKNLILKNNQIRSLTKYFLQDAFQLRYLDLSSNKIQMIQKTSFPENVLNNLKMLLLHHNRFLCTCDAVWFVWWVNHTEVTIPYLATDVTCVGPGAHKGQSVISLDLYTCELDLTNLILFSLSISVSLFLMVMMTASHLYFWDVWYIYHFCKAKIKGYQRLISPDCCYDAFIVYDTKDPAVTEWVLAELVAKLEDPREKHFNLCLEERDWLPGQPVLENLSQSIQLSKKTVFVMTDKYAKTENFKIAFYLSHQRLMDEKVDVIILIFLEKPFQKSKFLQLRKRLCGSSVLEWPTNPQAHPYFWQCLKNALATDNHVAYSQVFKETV
# B1: 10F: 5′ppp 2′F pyrimidine ssRNA aptamer, 71 nt, human melanocytic cell-targeting, SEQ ID NO: 4 (nucleic acid)
# chain: {ppp}-rGrGrGrArGrGrAfCrGrAfUrGfCrGrGfUrAfCfCfUrGrAfCrArGfCrAfUfCfUfUrGrAfUrArAfUrGrGfUfCfCfUrAfCrGrGrArGfCfCrGfUfUfCfCrArGrAfCrGrAfCfUfCrGfCfCfCrGrA
# Columns and labels:
# WM266.4 cells = assay: Cellular stability of transfected RNA by RT-PCR; format: in vitro ADME, human; details: 4, 8, 12 and 24 h after transfection
# Method: FIG. 6A-FIG. 6D are a set of graphs showing that 2′F modification increases nuclease resistance, cytotoxicity and inflammatory cytokine induction of immunostimulatory 5′ppp ssRNAs. FIG. 6A is a graph showing ability of various modified ssRNAs to inhibit the growth of cells over concentration ranges. WM266-4 cells were treated with transfection reagent alone (mock) or the complex of transfection reagent and 5′ppp 10F containing 2′F pyrimidine, 2′OMe pyrimidine or unmodified pyrimidine (2′OH) at various concentrations. The viral dsRNA analog PolyI:C was used as an experimental control. Growth inhibition was assessed at 72 h post treatments using the MTT assay. FIG. 6B is a set of graphs showing cytokine induction after treatment with the indicated ssRNAs. WM266-4 cells were either treated with transfection reagent alone (mock) or the complex of transfection reagent and 5′ppp 2′OH 10F, 5′ppp 2′F 10F, 5′ppp 2′OMe 10F or poly I:C (0.5 μg/ml each). The secretion of IFNβ and IL-8 by the melanoma cells was analyzed at 24 h after treatment by ELISA. The data represent the mean of three experiments. Error bars represent the S.D.; *P<0.05 (5′ppp 2′F 10F vs 5′ppp 2′OH 10F); P<0.001 (5′ppp 2′OMe 10F vs 5′ppp 2′OH 10F). […] RNAs were analyzed on 12% polyacrylamide gels. […] At 4 h, 8, 12 and 24 h after transfection, total RNAs were isolated and cellular 10F RNA levels were analyzed by RT-PCR. […]
# Human TLR7 = molecular target: T1, Human TLR7; assay: IL-8 production by human TLR7-expressing HEK293 cells; format: cell-based
# Method: The human TLR3 reporter cell, HEK-hTLR3-NFκB/SEAP was purchased from Invivogen. These cells were stably co-transfected with the human TLR3 gene and an inducible SEAP (secreted embryonic alkaline phosphatase) reporter gene into HEK293 cells. The SEAP gene is placed under the control of NF-κB and AP-1. […] SEAP gene expression was measured using the SEAP detection media QUANTI-BLUE (Invivogen), according to the manufacturer's instructions. FIG. 3B is a graph showing that TLR7 is not stimulated by the ssRNAs. Human TLR7-expressing HEK293 cells were kindly provided by Dr. Todd Brennan (Duke University, Durham, N.C.). Treatment with R848 but not with polyI:C, polyI:C-DF and 5′ppp 2′F 10F-DF complexes stimulated HEK-TLR7 cells to produce the inflammatory cytokine IL-8. The data represent the mean of two experiments. Error bars represent the S.D.
molecule,measurement,setting,value
B1,cellular stability compared to unmodified RNAs,WM266.4 cells,improve cellular stability
same,stimulation of HEK-TLR7 cells to produce IL-8,Human TLR7,not
